Assays:
[1] = set-up: species or system SD rats; conditions: rat, in vivo, sc, 2 mg/kg
Protocol: To evaluate PEGylated conjugates of phenylalanine lyase or its mutants with different average degrees of modification, the inventors divided SD rats into four groups (n=6 per group). The animals were subcutaneously injected with PL54-1 and PL54-5 (average degrees of modification: 10.54 and 13.60, respectively) and PL5-1 and PL5-5 (average degrees of modification: 8.2 and 10.53, respectively) from Table 3 of Example 2 at a dose of 2 mg/kg once a week for four doses. Blood samples were collected on D1 (Day 1), D3 (Day 3), and D7 (Day 7) after the first dose, as well as on D3 and D7 following each subsequent dose. The concentrations of PL54-1, PL54-5, PL5-1, and PL5-5 in rat serum were determined by sandwich ELISA to assess plasma drug concentration maintenance after multiple administrations. Anti-PEG-IgM/IgG antibody titers in rat serum from each group were measured using indirect ELISA (coating with PEG-BSA, adding positive rat anti-PEG Abs/test serum samples, followed by HRP-conjugated anti-rat IgM/IgG detection), while bridging ELISA (coating with PAL protein, adding positive sheep anti-PAL Abs/acidified serum samples, followed by biotin-labeled PAL detection) was also performed. The plasma drug concentration results are shown in FIG. 4, and the antibody detection results after administration were shown in FIG. 4 and FIG. 5.

[2] = system: anti-PEG IgG and IgM antibodies; test: Comparative immunogenicity with Pegvaliase: anti-PEG IgG and IgM antibodies after multiple administrations; type: in vivo; conditions: Pah^enu mice, 3 mg/kg s.c. once weekly for four weeks
Source text: To evaluate the differences in pharmacodynamics and immunogenicity between the polyethylene glycol conjugate PL54-5 of directionally saturated modified phenylalanine lyase mutant and Pegvaliase (marketed drug), eight Pah^enu mice were allocated into two groups of four mice each, and administered with either PL54-5 (average degree of modification: 13.60, specific enzyme activity: 1.27 U/mg) from Table 3 of Example 2 or Pegvaliase Injection (manufactured by BioMarin, purchased lot number L161239, specification: 20 mg/mL/vial) at an administration dose of 3.0 mg/kg, once weekly via subcutaneous injection for four consecutive weeks. Blood samples were collected from each group of mice before administration and at 3 days and 7 days after each administration, respectively. Changes in serum phenylalanine concentration were measured (Reference: Judy Peat et al., Determination of Phenylalanine and Tyrosine by High Performance Liquid Chromatography-Tandem Mass Spectrometry) and anti-PEG-IgM/IgG antibody titers of each animal were determined at the end of the study (see Example 5 for details), to assess differences in pharmacodynamics and immunogenicity, as shown in FIG. 11 and FIG. 12.

serum phenylalanine = test: Serum phenylalanine concentration after multiple administrations in phenylketonuria model mice (LC-MS/MS); type: in vivo; conditions: Pah^enu mice
Source text: Phenylalanine hydroxylase (PAH) was central to phenylalanine metabolism in animals, catalyzing the conversion of phenylalanine to tyrosine. Deficiency of this gene underlies phenylketonuria. […] Therefore, the homozygous mouse carrying the missense mutation F263S can be used as an animal model for phenylketonuria (referred to as the Pah^enu mouse or model mouse) in this drug study.
(§1) To evaluate the polyethylene glycol conjugate PL54 of site-saturation modified phenylalanine lyase mutant, […] Pah^enu mice were allocated into five groups (four experimental groups and one control group), with six mice in each group. PL54-5 (average degree of modification 13.60, specific enzyme activity 1.27 U/mg) from Table 3 of Example 2 was administered to phenylketonuria animal model mice at low, medium, and high doses of 0.5 mg/kg, 1.5 mg/kg, and 4.5 mg/kg, respectively, via subcutaneous injection. The high-dose group of 4.5 mg/kg also included a group receiving intramuscular administration, once per week. The control group was administered phosphate buffered saline as a placebo subcutaneously once weekly. Blood samples were collected from mice in each group at 1 h before administration and at 2, 5, and 7 days after administration for each group. The content of PL54-5 in serum, changes in phenylalanine concentration (Reference: Judy Peat et al., Determination of Phenylalanine and Tyrosine by High Performance Liquid Chromatography-Tandem Mass Spectrometry), and Anti-PEG-IgM/IgG antibody titers (see Example 5 for details) were detected by sandwich ELISA (see Example 5 for details), and their pharmacokinetics were evaluated, see FIG. 6 to FIG.9 for details.

[3] = system: anti-PAL4 protein antibodies; test: Anti-PAL4 protein antibody after multiple administrations in phenylketonuria model mice; type: in vivo; conditions: Pah^enu mice
[4] = set-up: species or system Pah^enu mice; conditions: mouse, in vivo
Protocol: as §1

anti-PEG antibodies = system: anti-PEG antibodies; set-up: species or system Pah^enu mice; conditions: mouse, in vivo
Protocol: as §1

[5] = Subcutaneous/intravenous pharmacokinetics in dogs (double-antibody sandwich ELISA); type: in vivo; conditions: beagle dogs; for dogs with accelerated blood clearance: 2 mg/kg once weekly
Protocol: […] Six beagle dogs were equally divided into two groups: the subcutaneous administration group and the intravenous administration group. […] Blood samples were collected from both groups on days 1, 3, 5, and 7 after the first administration, and on Day 1 and Day 3 after each subsequent administration. Serum plasma drug concentrations were measured using the double-antibody sandwich ELISA method (see Example 5 for details).

B1: PL54-5: polyethylene glycol conjugate of PAL4 (SEQ ID NO: 6) with PEG-SPA-5K, molar ratio 1:16, average degree of modification 13.60 (conjugate)
chain: MKTLSQAQSKTSSQQFSFTGNSSANVIIGNQKLTINDVARVARNGTLVSLTNNTDILQGIQASCDYINNAVKSGEPIYGVTSGFGGMANVAISREQASELQTNLVWFLKTGAGNKLPLADVRAAMLLRANSHMRGASGIRLELIKRMEIFLNAGVTPYVYEFGSIGASGDLVPLSYITGSLIGLDPSFKVDFNGKEMDAPTALRQLNLSPLTLLPKEGLAMMNGTSVMTGIAANCVYDTKILTAIAMGVHALDIQALNGTNQSFHPFIHNSKPHPGQLWAADQMISLLANSQLVRDELDGKHDYRDHELIQDRYSLRCLPQYLGPIVDGISQIAKQIEIEINSVTDNPLIDVDNQASYHGGNFLGQYVGMGMDHLRYYIGLLAKHLDVQIALLASPEFSNGLPPSLLGNRERKVNMGLKGLQICGNSIMPLLTFYGNSIADRFPTHAEQFNQNINSQGYTSATLARKSVDIFQNYVAIALMFGVQAVDLRTYKKTGHYDARASLSPATERLYSAVRHVVGQKPTSDRPYIWNDNEQGLDEHIAKISADIAAGGVIVQAVQDILPSLH
modifications: PEG-SPA-5K conjugate, ~13.6 PEG per molecule
plasma drug maintenance [1]: superior to that of PL5-1 and PL5-5
immunogenicity after long-term administration [2]: significantly lower immunogenicity than pegvaliase
efficacy after intramuscular administration (serum phenylalanine; 4.5 mg/kg intramuscular once per week): consistent with that after subcutaneous administration
serum phenylalanine (serum phenylalanine; high dose 4.5 mg/kg s.c., within 2 days after the first administration): below the method detection limit
reduction of serum phenylalanine levels (serum phenylalanine; high-dose group 4.5 mg/kg s.c., after five repeated administrations, within 2 days): more than 90%
decrease of serum phenylalanine levels (serum phenylalanine; medium-dose group 1.5 mg/kg s.c., after five repeated administrations): approximately 75%
anti-PAL4 protein antibodies ([3]; intramuscular administration group): weak positivity
anti-PAL4 protein antibodies ([3]; subcutaneous administration group): negative
plasma drug concentration in relation to the administration dose [4]: directly proportional to the administration dose
plasma drug concentration, intramuscular compared with subcutaneous ([4]; 4.5 mg/kg): higher than that in the subcutaneous administration group
S/N values of IgG and IgM antibodies (anti-PEG) (anti-PEG antibodies): decreased with increasing number of administrations
anti-PEG antibodies (anti-PEG antibodies): positive
bioavailability of subcutaneous administration relative to intravenous administration ([5]; 2 mg/kg): 64.4%
dogs with accelerated blood clearance ([5]; after multiple intravenous administrations): 2/3
dogs with accelerated blood clearance ([5]; after multiple subcutaneous administrations): 1/3
peak time of blood drug concentration ([5]; 2 mg/kg, single intravenous administration): 1 days
peak time of blood drug concentration ([5]; 2 mg/kg, single subcutaneous administration): 3 days
